Data as given in US20230241243A1, “CARRIER PARTICLE-DRUG CONJUGATES, SELF-IMMOLATIVE LINKERS, AND USES THEREOF” (priority 2020, published 2023).

Experiment: Drug-release assay of nanoparticle-conjugated linker-payloads under cleavage conditions (Cat-B, redox-responsive or pH-sensitive cleaving study), RP-HPLC
Type: in vitro ADME
Conditions: linker-payload conjugated to DBCO-functionalized silica nanoparticle, 37° C., 24 hours
Procedure: To assess the drug releasing profile of exemplary linker-drug conjugates, the linker-drug conjugates were each conjugated to a DBCO-functionalized ultrasmall silica nanoparticle via a click chemistry reaction between the azide groups on the linker-drug conjugate precursors and the dibenzocyclooctyne (DBCO) groups of the nanoparticles. The resulting drug-nanoparticle-conjugates were then incubated under the desired releasing conditions for release kinetics tests.
The amount of released drugs vs non-released drugs was measured using reverse phase HPLC by analyzing the area under curve (AUC) (FIG. 10A and FIG. 10B).
General Method: A Waters Xbridge Peptide BEH C18 column with 4.6 mm×50 mm dimensions, a particle size of 5 μm, and a pore size of 300 A was used (part number 186003622). Acetonitrile (VWR HiPerSolv Chromanorm, UHPLC Grade) was used as received without further preparation, […] trifluoroacetic acid in deionized water was prepared by adding 1 mL of trifluoroacetic acid (HPLC grade, Millipore-Sigma) into 999 mL 18.2 MΩ·cm deionized water that was generated using an IQ7000 Millipore deionized water system and passed through a 0.2 μm filter before use. The seal wash used for the system was composed of 90% 18.2 MΩ·cm deionized water and 10% methanol (HPLC grade, VWR). The injection needle was washed using a mixture of 25 vol % 18.2 MΩ·cm deionized water, 25 vol % acetonitrile, 25 vol % methanol, and 25 vol % 2-propanol. Samples were prepared in a concentration range of 0.25 to 2 μM and the injection volume ranges from 60 μL to 10 μL, respectively. Higher sample concentration can be used if detector signal is low. Vials used for all injections are fresh Waters Total Recovery vials with screw caps that have pre-slit PTFE septa (part number 186000385C).
Method for Protease-cleavable and Redox-responsive Linkers: Before any sample injections were started, the PDA lamp was turned on and allowed to warm up for at least 30 minutes. The system and column were equilibrated with 95% 0.01% TFA in deionized water, 5% acetonitrile for at least 10 minutes at a flow rate of 1.0 mL/min after the PDA lamp had warmed up. Two blank injections, with injection volumes of 10 μL containing only 18.2 MΩ·cm deionized water, were performed before the injection of any samples for analysis. The gradient used to elute protease-cleavable and redox-sensitive linkers conjugated to hybrid silica nanoparticles, and their components began at 95% 0.01% TFA in deionized water and 5% acetonitrile and linearly changed to 15% 0.01% TFA in deionized water, 85% acetonitrile over 8 minutes. Acetonitrile composition was increased to 95% over an additional minute and held at 95% for an additional 2 minutes to ensure that any strongly retained compounds are eluted. The composition of the solvent was then changed back to the starting composition of the gradient over an additional minute and allowed to equilibrate for 3 minutes before another injection began. Between sample injections a blank injection was run to ensure that no carryover occurred.
Method for pH-sensitive Linkers: Before any sample injections were started, the PDA lamp was turned on and allowed to warm up for at least 30 minutes. A gradient of pure deionized water and acetonitrile was used, all other consumables including column and vials were the same as for the method to purify Cat-B sensitive and redox-responsive linkers elaborated on above. Briefly the gradient composition began at 95% deionized water and 5% acetonitrile at a flow rate of 1.0 mL/min (not changed throughout the method). The composition was changed from this starting composition to 15% deionized water and 85% acetonitrile over a 12-minute period, during which the retained drug-linkers, released drug, free drug linker, and any other impurities eluted. At the 12-minute mark the composition was rapidly changed to 5% deionized water and 95% acetonitrile over the course of one minute. […]

Q: Which “% of Payload Release in 24 Hours Under Cleavage Conditions” value (“% of Payload Release” below) does the source give for `CC[C@@]1(O)C(=O)OCc2c1cc1n(c2=O)Cc2c-1nc1cc(F)c(C)c3c1c2[C@@H](NC(=O)C(=O)c1ccc(NC(=O)[C@H](CCCNC(N)=O)NC(=O)[C@@H](NC(=O)CCOCCOCCOCCOCCOCCOCCN=[N+]=[N-])C(C)C)cc1)CC3` [Example 24, 1-azido-N-((S)-1-(((S)-1-((4-(2-(((1S,9S)-9-ethyl-5-fluoro-9-hydroxy-4-methyl-10,13-dioxo-2,3,9,10,13,15-hexahydro-1H,12H-benzo[de]pyrano[3′,4′:6,7]indolizino[1,2-b]quinolin-1-yl)amino)-2-oxoacetyl)phenyl)amino)-1-oxo-5-ureidopentan-2-yl)amino)-3-methyl-1-oxobutan-2-yl)-3,6,9,12,15,18-hexaoxahenicosan-21-amide] here?
A: + (‘+’ indicates 5-25% release)

Q: Which “% of Payload Release” value does the source give for `CC[C@@]1(O)C(=O)OCc2c1cc1n(c2=O)Cc2c-1nc1cc(F)c(C)c3c1c2[C@@H](NC(=O)CSSC(C)(C)CNC(=O)CCOCCOCCOCCOCCOCCOCCOCCOCCOCCOCCOCCOCCN=[N+]=[N-])CC3` [Example 60, 1-azido-N-(2-((2-(((1S,9S)-9-ethyl-5-fluoro-9-hydroxy-4-methyl-10,13-dioxo-2,3,9,10,13,15-hexahydro-1H,12H-benzo[de]pyrano[3′,4′:6,7]indolizino[1,2-b]quinolin-1-yl)amino)-2-oxoethyl)disulfaneyl)-2-methylpropyl)-3,6,9,12,15,18,21,24,27,30,33,36-dodecaoxanonatriacontan-39-amide] here?
A: +++ (‘+++’ indicates 51-75% release)

Q: For `CCc1c2c(nc3ccc(OCc4c(F)cc(NC(=O)[C@H](CCCNC(N)=O)NC(=O)[C@@H](NC(=O)CCOCCOCCOCCOCCOCCOCCOCCOCCOCCN=[N+]=[N-])C(C)C)cc4F)cc13)-c1cc3c(c(=O)n1C2)COC(=O)[C@]3(O)CC` [Example 21, 1-Azido-N-((S)-1-(((S)-1-((4-((((S)-4,11-diethyl-4-hydroxy-3,14-dioxo-3,4,12,14-tetrahydro-1H-pyrano[3′,4′:6,7]indolizino[1,2-b]quinolin-9-yl)oxy)methyl)-3,5-difluorophenyl)amino)-1-oxo-5-ureidopentan-2-yl)amino)-3-methyl-1-oxobutan-2-yl)-3,6,9,12,15,18,21,24,27-nonaoxatriacontan-30-amide], which “% of Payload Release” value is on record?
A: + (‘+’ indicates 5-25% release)

Q: With `CCc1c2c(nc3ccc(OCc4ccc(NC(=O)[C@H](CCCNC(N)=O)NC(=O)[C@@H](NC(=O)CCOCCOCCOCCOCCOCCOCCOCCOCCOCCOCCOCCN=[N+]=[N-])C(C)C)cc4)cc13)-c1cc3c(c(=O)n1C2)COC(=O)[C@]3(O)CC` [Example 49, 1-azido-N-((S)-1-(((S)-1-((4-((((S)-4,11-diethyl-4-hydroxy-3,14-dioxo-3,4,12,14-tetrahydro-1H-pyrano[3′,4′:6,7]indolizino[1,2-b]quinolin-9-yl)oxy)methyl)phenyl)amino)-1-oxo-5-ureidopentan-2-yl)amino)-3-methyl-1-oxobutan-2-yl)-3,6,9,12,15,18,21,24,27,30,33-undecaoxahexatriacontan-36-amide] as the molecule, how does the “% of Payload Release” value read?
A: + (‘+’ indicates 5-25% release)

Q: With `CCc1c2c(nc3ccc(OCCCNC(=O)OCc4ccc(NC(=O)[C@H](CCCNC(N)=O)NC(=O)[C@@H](NC(=O)CCOCCOCCOCCOCCOCCN=[N+]=[N-])C(C)C)cc4)cc13)-c1cc3c(c(=O)n1C2)COC(=O)[C@]3(O)CC` [Example 15, 4-((20S,23S)-1-azido-20-isopropyl-18,21-dioxo-23-(3-ureidopropyl)-3,6,9,12,15-pentaoxa-19,22-diazatetracosan-24-amido)benzyl (3-(((S)-4,11-diethyl-4-hydroxy-3,14-dioxo-3,4,12,14-tetrahydro-1H-pyrano[3′,4′:6,7]indolizino[1,2-b]quinolin-9-yl)oxy)propyl)carbamate] as the molecule, how does the “% of Payload Release” value read?
A: ++ (‘++’ indicates 26-50% release)

Q: With `CCc1c2c(nc3ccc(OCCCNC(=O)OCc4ccc(NC(=O)[C@H](CCCNC(N)=O)NC(=O)[C@@H](NC(=O)CCOCCOCCOCCOCCOCCOCCOCCOCCOCCOCCOCCN=[N+]=[N-])C(C)C)cc4)cc13)-c1cc3c(c(=O)n1C2)COC(=O)[C@]3(O)CC` [Example 17, 4-((38S,41S)-1-azido-38-isopropyl-36,39-dioxo-41-(3-ureidopropyl)-3,6,9,12,15,18,21,24,27,30,33-undecaoxa-37,40-diazadotetracontan-42-amido)benzyl (3-(((S)-4,11-diethyl-4-hydroxy-3,14-dioxo-3,4,12,14-tetrahydro-1H-pyrano[3′,4′:6,7]indolizino[1,2-b]quinolin-9-yl)oxy)propyl)carbamate] as the molecule, how does the “% of Payload Release” value read?
A: ++ (‘++’ indicates 26-50% release)

Q: For `CCc1c2c(nc3ccc(OCCCSSC(C)(C)CNC(=O)CCOCCOCCOCCOCCOCCOCCOCCOCCOCCN=[N+]=[N-])cc13)-c1cc3c(c(=O)n1C2)COC(=O)[C@]3(O)CC` [Example 55, (S)-1-Azido-N-(2-((3-((4,11-diethyl-4-hydroxy-3,14-dioxo-3,4,12,14-tetrahydro-1H-pyrano[3′,4′:6,7]indolizino[1,2-b]quinolin-9-yl)oxy)propyl)disulfanyl)-2-methylpropyl)-3,6,9,12,15,18,21,24,27-nonaoxatriacontan-30-amide], which “% of Payload Release” value is on record?
A: + (‘+’ indicates 5-25% release)

Q: For `CCc1c2c(nc3ccc(OCCCSSC(C)(C)CNC(=O)CCOCCOCCOCCOCCOCCN=[N+]=[N-])cc13)-c1cc3c(c(=O)n1C2)COC(=O)[C@]3(O)CC` [Example 54, (S)-1-azido-N-(2-((3-((4,11-diethyl-4-hydroxy-3,14-dioxo-3,4,12,14-tetrahydro-1H-pyrano[3′,4′:6,7]indolizino[1,2-b]quinolin-9-yl)oxy)propyl)disulfanyl)-2-methylpropyl)-3,6,9,12,15-pentaoxaoctadecan-18-amide], which “% of Payload Release” value is on record?
A: + (‘+’ indicates 5-25% release)

Q: With `CC[C@@]1(O)C(=O)OCc2c1cc1n(c2=O)Cc2c-1nc1cc(F)c(C)c3c1c2[C@@H](NC(=O)OCc1ccc(NC(=O)[C@H](CCCCN)NC(=O)[C@H](Cc2ccccc2)NC(=O)CCOCCOCCOCCOCCOCCOCCOCCOCCOCCOCCN=[N+]=[N-])cc1)CC3` [Example 26, 4-((35S,38S)-38-(4-aminobutyl)-1-azido-35-benzyl-33,36-dioxo-3,6,9,12,15,18,21,24,27,30-decaoxa-34,37-diazanonatriacontan-39-amido)benzyl ((1S,9S)-9-ethyl-5-fluoro-9-hydroxy-4-methyl-10,13-dioxo-2,3,9,10,13,15-hexahydro-1H,12H-benzo[de]pyrano[3′,4′:6,7]indolizino[1,2-b]quinolin-1-yl)carbamate] as the molecule, how does the “% of Payload Release” value read?
A: + (‘+’ indicates 5-25% release)

Q: With `CCc1c2c(nc3ccc(OCCCNC(=O)OCc4ccc(NC(=O)[C@H](CCCNC(N)=O)NC(=O)[C@@H](NC(=O)CCOCCOCCOCCOCCOCCOCCOCCOCCOCCN=[N+]=[N-])C(C)C)cc4)cc13)-c1cc3c(c(=O)n1C2)COC(=O)[C@]3(O)CC` [Example 16, 4-((32S,35S)-1-azido-32-isopropyl-30,33-dioxo-35-(3-ureidopropyl)-3,6,9,12,15,18,21,24,27-nonaoxa-31,34-diazahexatriacontan-36-amido)benzyl (3-(((S)-4,11-diethyl-4-hydroxy-3,14-dioxo-3,4,12,14-tetrahydro-1H-pyrano[3′,4′:6,7]indolizino[1,2-b]quinolin-9-yl)oxy)propyl)carbamate] as the molecule, how does the “% of Payload Release” value read?
A: +++ (‘+++’ indicates 51-75% release)
